Measurements published in patent publication US10704030B2, “P450-BM3 variants with improved activity” (Codexis, Inc., priority 2015, dated 2020).
Where a chain is given by its changes, count along the chain named. In names and notes the source's numbering stands.

B1: SEQ ID NO: 10: P450-BM3 parental backbone from the commercially available MCYP panel (MCYP-0343; Codexis) (protein)
chain: MTIKEMPQPKTFGELKNLPLLNTDKPVQALMKIADELGEIFKFEAPGCVTRYLSSQRLIKEACDESRFDKNLSQALKFARDFAGDGLATSWTHEINWKKAHNILLPSFSQQAMKGYHAMMVDIAVQLVQKWERLNADEHIEVSEDMTRLTLDTIGLCGFNYRFNSFYRDQPHPFIISMVRALDEVMNKLQRANPDDPAYDENKRQCQEDIKVMNDLVDKIIADRKARGEQSDDLLTQMLNGKDPETGEPLDDGNISYQIITFLIAGHETTSGLLSFALYFLVKNPHVLQKVAEEAARVLVDPVPSYKQVKQLKYVGMVLNEALRLWPTAPAFSLYAKEDTVLGGEYPLEKGDEVMVLIPQLHRDKTIWGDDVEEFRPERFENPSAIPQHAFKPFGNGQRACIGQQFALHEATLVLGMMLKHFDFEDHTNYELDIKETLTLKPEGFVVKAKSKKIPLGGIPSPSTEQSAKKVRKKAENAHNTPLLVLYGSNMGTAEGTARDLADIAMSKGFAPQVATLDSHAGNLPREGAVLIVTASYNGHPPDNAKQFVDWLDQASADEVKGVRYSVFGCGDKNWATTYQKVPAFIDETLAAKGAENIADRGEADASDDFEGTYEEWREHMWSDVAAYFNLDIENSEDNKSTLSLQFVDSAADMPLAKMHGAFSTNVVASKELQQPGSARSTRHLEIELPKEASYQEGDHLGVIPRNYEGIVNRVTARFGLDASQQIRLEAEEEKLAHLPLAKTVSVEELLQYVELQDPVTRTQLRAMAAKTVCPPHKVELEALLEKQAYKEQVLAKRLTMLELLEKYPACEMKFSEFIALLPSIRPRYYSISSSPRVDEKQASITVSVVSGEAWSGYGEYKGIASNYLAELQEGDTITCFISTPQSEFTLPKDPETPLIMVGPGTGVAPFRGFVQARKQLKEQGQSLGEAHLYFGCRSPHEDYLYQEELENAQSEGIITLHTAFSRMPNQPKTYVQHVMEQDGKKLIELLDQGAHFYICGDGSQMAPAVEATLMKSYADVHQVSEADARLWLQQLEEKGRYAKDVWAG
modifications: P450_BM3
B2: Variant 3: P450-BM3 variant of SEQ ID NO: 10: K32R; C48S; Y52F; I95P; L216Y; D232H; E349K; M491A; N574T; D722S (protein)
chain: B1 chain with K32R, C48S, Y52F, I95P, L216Y, D232H, E349K, M491A, N574T, D722S
modifications: P450_BM3
notes: C48S; Y52F; I95P; L216Y; D232H; E349K; M491A; N574T; D722S
B3: Variant 10: P450-BM3 variant of SEQ ID NO: 8: K32R; Y52F; K95P; Q111R; G115R; I176V; L216Y; D232H; P347T; E349T; M491A; T577A; E619D; D722S (protein)
chain: MTIKEMPQPKTFGELKNLPLLNTDKPVQALMRIADELGEIFKFEAPGRVTRFLSSQRLIKEACDESRFDKNLSQALKFARDFAGDGLFTSWTHEPNWKKAHNILLPSFSQRAMKRYHAMMVDIAVQLVQKWERLNADEYIEVPEDMTRLTLDTIGLCGFNYRFNSFYRDQPHPFIVSMIRALDEVMNKLQRANPDDPAYDENKRQFQEDIKVMNDYVDKIIADRKASGEQSHDLLTQMLNGKDPETGEPLDDGNISYQIITFLIAGHETTSGLLSFALYFLVKNPHVLQKVAEEATRVLVDPVPSYKQVKQLKYVGMVLNEALRLWPTAPAFSLYAKEDTVLGGEYTLTKGDEVMVLIPQLHRDKTIWGDDVEEFRPERFENPSAIPQHAFKPFGNGQRACIGQQFALHEATLVLGMMLKHFDFEDHTNYELDIKETLTLKPEGFVVKAKSKKIPLGGIPSPSTEQSAKKVRKKAENAHNTPLLVLYGSNAGTAEGTARDLADIAMSKGFAPQVATLDSHAGNLPREGAVLIVTASYNGHPPDNAKQFVDWLDQASADEVKGVRYSVFGCGDKNWAATYQKVPAFIDETLAAKGAENIADRGEADASDDFEGTYEEWRDHMWSDVAAYFNLDIENSEDNKSTLSLQFVDSAADMPLAKMHGAFSTNVVASKELQQPGSARSTRHLEIELPKEASYQEGDHLGVIPRNYEGIVNRVTARFGLSASQQIRLEAEEEKLAHLPLAKTVSVEELLQYVELQDPVTRTQLRAMAAKTVCPPHKVELEALLEKQAYKEQVLAKRLTMLELLEKYPACEMKFSEFIALLPSIRPRYYSISSSPRVDEKQASITVSVVSGEAWSGYGEYKGIASNYLAELQEGDTITCFISTPQSEFTLPKDPETPLIMVGPGTGVAPFRGFVQARKQLKEQGQSLGEAHLYFGCRSPHEDYLYQEELENAQSEGIITLHTAFSRMPNQPKTYVQHVMEQDGKKLIELLDQGAHFYICGDGSQMAPAVEATLMKSYADVHQVSEADARLWLQQLEEKGRYAKDVWAG
modifications: P450_BM3
notes: Y52F; K95P; Q111R; G115R; I176V; L216Y; D232H; P347T; E349T; M491A; T577A; E619D; D722S
B4: Variant 11: P450-BM3 variant of SEQ ID NO: 8: K95P; Q111R; G115R; I176V; L216Y; E349T; M491A; T577A; E619D; D722S (protein)
chain: B3 chain with R32K, F52Y, H232D, T347P
modifications: P450_BM3
notes: Q111R; G115R; I176V; L216Y; E349T; M491A; T577A; E619D; D722S

Columns and labels:
Assay type in all cases: biochemical
[1] = Validation of generalist properties: oxidation of diclofenac by lyophilized P450-BM3 variant, UPLC-MS; conditions: [Diclofenac] = 1 mM; for TON: TON = [substrate]*% conversion/[P450]; for FIOPC (B02): fold improvement over parent MCYP-P1.2-B02
Procedure: (§1) For the production of lyophilized protein powders, LB agar plates supplemented with chloramphenicol (30 μg/mL) were streaked with E. coli containing a desired B. megaterium P450-BM3 variant in an IPTG-inducible vector. The plates were grown at 37° C. for 16 hrs before single clones were selected to inoculate a 15 mL Falcon™ tube (Fisher) containing TB media (3 mL) supplemented with chloramphenicol (30 μg/mL). The tube was shaken at 200 rpm, 30° C., and 85% humidity for 20-24 h to grow the cultures to saturation. Then, 2.5 mL of the overnight culture was used to inoculate sterile 1 L flasks containing TB medium (250 mL) supplemented with chloramphenicol (30 μg/mL), trace element solution (as described above), and 0.05 g/L ammonium iron (III) citrate. After being shaken at 250 rpm, 30° C., and 85% humidity to an OD600 of 0.8-1.2, P450 expression was induced by addition of IPTG (500 uM) and the heme precursor 5-aminolevulinic acid (5-ALA) to a final concentration of 500 uM. The cultures were grown for additional 20-24 hours and centrifuged in pre-weighed 250 mL centrifuge bottles for 20 minutes at 4000 rpm, 4° C. The supernatants were discarded, and the centrifuge bottles containing cell pellets were weighed. The pellets were resuspended in 50 mM potassium phosphate buffer with 2 mM DTT, pH 8.0 (5 mL of buffer per gram of cell pellet). The cells were lysed using a microfluidizer homogenizer, and the suspensions of cells and lysate were collected in sterile 50 mL centrifuge tubes. The samples were centrifuged for 30 minutes at 10,000 rpm, 4° C. The clarified lysate was collected into a plastic petri plate and frozen at −80° C. prior to lyophilization. The enzyme-containing lysates were lyophilized using standard methods known in the art.
(§2) Enzyme stocks (˜12 μM) were prepared by dissolving ˜20 mg of each enzyme in 100 mM potassium phosphate buffer, pH 8.0 (1 mL). The concentration of each enzyme stock solution was determined by the UV-visible absorption spectroscopy (after centrifugation to remove particulates) and diluted to standardize at 12 μM heme protein. Substrate solutions were prepared by dissolving each substrate in DMSO to reach a final concentration of 20 mM or 40 mM. Reaction mix (235 μL) followed by enzyme solution (50 μL) was added to the plates. The substrate stock solution was added to the enzyme solutions (15 μL at the two different concentrations). Each reaction contained 100 mM potassium phosphate, 1.0 mM NADP+, 25 mM glucose, 0.5 mg/mL glucose dehydrogenase, 5% DMSO and substrate at 1 or 2 mM. Loratadine, imatinib, and gefitinib (See, FIG. 1) were selected as substrates in addition to diclofenac to validate improved BM3 variants. The reactions were shaken at 450 rpm at 30° C. over 24 hours. All reactions were diluted with acetonitrile to a final concentration of 0.5 mM substrate. The plates were then centrifuged at 3,000 g for 1 hour at 20° C. The supernatant was diluted 1:1 with acetonitrile, filtered using a 0.4 micron filter, and analyzed by UPLC-MS.
(§3) For UPLC-MS analysis, the quenched and filtered reactions were transferred to 96-well HTP plates for analysis by UPLC on a Waters Acquity H-class system equipped with an autosampler. 1 uL of quenched sample was injected onto an Acquity UPLC HSS T3 column, 100 Å, (1.8 um; 2.1×100 mm). The column was eluted at a constant flow rate of 0.6 mL/min; conditions with solvent A (0.05% trifluoroacetic acid v/v, in H2O) and solvent B (0.05% trifluoroacetic acid v/v, in acetonitrile) used to elute the products of the reaction were: 0-2 min, A/B 95:5; 2-2.9 min, A/B 5:95; 2.9-3 min, A/B 95:5; 3-3.5 min, A/B 95:5. Column eluent was monitored by PDA (200-600 nm) prior to MS analysis in positive ESI mode (desolvation temperature 350° C., 3.25 kV spray voltage, cone voltage 25V). The column eluent was diverted to waste for the first 0.7 minutes of the run. For the remainder of the LC run, both MS (m/z 95-600 scan range) and MS/MS were collected. […]

[2] = Validation of generalist properties: oxidation of gefitinib by lyophilized P450-BM3 variant, UPLC-MS; conditions: [Gefitinib] = 1 mM; for TON: TON = [substrate]*% conversion/[P450]; for FIOPC (B02): fold improvement over parent MCYP-P1.2-B02
Procedure: as §1, §2, §3

[3] = Validation of generalist properties: oxidation of loratadine by lyophilized P450-BM3 variant, UPLC-MS; conditions: [Loratadine] = 1 mM; for TON: TON = [substrate]*% conversion/[P450]; for FIOPC (B02): fold improvement over parent MCYP-P1.2-B02
Procedure: as §1, §2, §3

[4] = Validation of generalist properties: oxidation of imatinib by lyophilized P450-BM3 variant, UPLC-MS; conditions: [Imatinib] = 1 mM; for TON: TON = [substrate]*% conversion/[P450]; for FIOPC (B02): fold improvement over parent MCYP-P1.2-B02
Procedure: as §1, §2, §3

[5] = fold improvement over parent MCYP-P1.2-B12

| Molecule | % Conv. [1] | TON [1] | % Conv. [2] | TON [2] | % Conv. [3] | TON [3] | % Conv. [4] | TON [4] | FIOPC (B12) [1, 5] | FIOPC (B12) [2, 5] | FIOPC (B12) [3, 5] | FIOPC (B12) [4, 5] | FIOPC (B02) [1] | FIOPC (B02) [2] | FIOPC (B02) [3] | FIOPC (B02) [4] |
| --- | --- | --- | --- | --- | --- | --- | --- | --- | --- | --- | --- | --- | --- | --- | --- | --- |
| B1 | ++++ (15.01-20.00) | ‡‡‡‡ (10000-50000) | ++ (5.01-10.00) | ‡‡ (1001-5000) | ++++ (15.01-20.00) | ‡‡‡‡ (10000-50000) | ++ (5.01-10.00) | ‡‡ (1001-5000) |  |  |  |  |  |  |  |  |
| B2 | ++++ (15.01-20.00) | ‡‡‡‡ (10000-50000) | ++++ (15.01-20.00) | ‡‡‡‡ (10000-50000) | ++++ (15.01-20.00) | ‡‡‡‡ (10000-50000) | ++++ (15.01-20.00) | ‡‡‡‡ (10000-50000) | * (0.0-3.0) | *** (5.01-10.0) | * (0.0-3.0) | *** (5.01-10.0) |  |  |  |  |
| B3 | +++ (10.01-15.00) | ‡‡‡ (5001-10000) | ++ (5.01-10.00) | ‡‡ (1001-5000) | ++ (5.01-10.00) | ‡‡ (1001-5000) | ++++ (15.01-20.00) | ‡‡‡‡ (10000-50000) |  |  |  |  | * (0.0-3.0) | **** (10.01-15.00) | * (0.0-3.0) | ** (3.01-5.0) |
| B4 | ++++ (15.01-20.00) | ‡‡‡ (5001-10000) | + (0-5.00) | ‡ (0-1000) | +++ (10.01-15.00) | ‡‡‡ (5001-10000) | ++++ (15.01-20.00) | ‡‡‡‡ (10000-50000) |  |  |  |  | * (0.0-3.0) | * (0.0-3.0) | * (0.0-3.0) | * (0.0-3.0) |
